Laboratory results from article PMC7280531 (2020).
Where no end group is shown, it is not given here. [ ]: non-standard residue; d: D form. Ahx = NCCCCCC(=O)O

B1: β-catenin (natural protein)
chain: MATQADLMELDMAMEPDRKAAVSHWQQQSYLDSGIHSGATTTAPSLSGKGNPEEEDVDTSQVLYEWEQGFSQSFTQEQVADIDGQYAMTRAQRVRAAMFPETLDEGMQIPSTQFDAAHPTNVQRLAEPSQMLKHAVVNLINYQDDAELATRAIPELTKLLNDEDQVVVNKAAVMVHQLSKKEASRHAIMRSPQMVSAIVRTMQNTNDVETARCTAGTLHNLSHHREGLLAIFKSGGIPALVKMLGSPVDSVLFYAITTLHNLLLHQEGAKMAVRLAGGLQKMVALLNKTNVKFLAITTDCLQILAYGNQESKLIILASGGPQALVNIMRTYTYEKLLWTTSRVLKVLSVCSSNKPAIVEAGGMQALGLHLTDPSQRLVQNCLWTLRNLSDAATKQEGMEGLLGTLVQLLGSDDINVVTCAAGILSNLTCNNYKNKMMVCQVGGIEALVRTVLRAGDREDITEPAICALRHLTSRHQEAEMAQNAVRLHYGLPVVVKLLHPPSHWPLIKATVGLIRNLALCPANHAPLREQGAIPRLVQLLVRAHQDTQRRTSMGGTQQQFVEGVRMEEIVEGCTGALHILARDVHNRIVIRGLNTIPLFVQLLYSPIENIQRVAAGVLCELAQDKEAAEAIEAEGATAPLTELLHSRNEGVATYAAAVLFRMSEDKPQDYKKRLSVELTSSLFRTEPMAWNETADLGLDIGAQGEPLGYRQDDPSYRSFHSGGYGQDALGMDPMMEHEMGGHHPGADYPVDGLPDLGHAQDLMDGLPPGDSNQLAWFDTDL
B2: xStAx-VHLL (peptide)
chain: RRWPQLILDLHVRRVWR[Ahx]ALAPYIP
modifications: staple (positions not given here); not fully specified (C-terminus); also: further groups not given here
B3: xStAx (peptide)
chain: Ac-RRWPQLILDLHVRRVWR
modifications: staple (positions not given here); not fully specified (C-terminus); also: further groups not given here

Tests used:
Test in all cases: ITC
SAHPA1-VHLL = SAHPA1-VHLL (stapled: side chains of olefin residues (S5, R8) cross-linked by ring-closing metathesis, positions in Figure 1a; 6-aminocaproic acid (Ahx) linker between the stapled peptide and the VHL ligand)
SAHPA1 = SAHPA1 (stapled: side chains of olefin residues (S5, R8) cross-linked by ring-closing metathesis, positions in Figure 1a; N-terminus treated with acetic anhydride (typical protocol))
β-catenin [1] = target: B1
β-catenin [2] = target: B1

Binder	Ka (SAHPA1-VHLL)	Kd (SAHPA1-VHLL)	Ka (SAHPA1)	Kd (SAHPA1)	Kd (β-catenin [1])	Ka (β-catenin [2])
B1	18100 M⁻¹	55 µM	26400 M⁻¹	38 µM	–	–
B2	–	–	–	–	12 µM	–
B3	–	–	–	–	37 µM	27000 M⁻¹
